What is called Kd is the concentration at which binding is half-saturated. The low end stands for a tighter complex, the high end for a looser complex. As usually defined, the stoichiometry N is a count of units in the complex or per binding partner.

Four molecules from PMC6251626 can be followed below.

Experiment [1] concerns the target DRP-bound αβ-tubulin (1:1 complex of porcine αβ-tubulin and DARPin D1) (porcine) (UniProt P02550). Nature of the experiment: ITC; TOG1 or TOG2 (100-250 μM) injected into a cell with 1:1 αβ-tubulin and DRP (20-40 μM); 25°C, 50 mM HEPES pH 7.3, 100 mM KCl, 1 mM MgCl2. (In general: ITC needs no label: the signal is the heat of the interaction.)
The target is the same in experiment [2]. As to the kind of experiment: ITC; TOG1 or TOG2 (100-250 μM) injected into a cell with 1:1 αβ-tubulin and DRP (20-40 μM); 25°C, 50 mM HEPES pH 7.3, 200 mM KCl, 1 mM MgCl2.
The target is the same in experiment [3]. As to the kind of experiment: SEC-MALS; Alp14 constructs mixed with soluble αβ-tubulin (with or without DRP), Superdex 200 Increase 10/300, 80-100 mM KCl. (In gel filtration, larger molecules generally elute earlier.)
For experiment [4], the target named is αβ-tubulin heterodimer purified from porcine brains (porcine) (UniProt P02550). Described as above.
The target of experiment [5] is DRP-bound αβ-tubulin (1:1 complex of porcine αβ-tubulin and DARPin D1) (porcine) (UniProt P02550). As to the kind of experiment: SEC; quantitative SEC (Superdex 200 10/300) with SDS-PAGE densitometry of fractions; 1 αβ-tubulin per Alp14 subunit, with or without DRP; 100 mM KCl, 50 mM HEPES pH 7.0, 1 mM MgCl2, 1 mM β-mercaptoethanol.
Experiment [6] addresses αβ-tubulin heterodimer purified from porcine brains (porcine) (UniProt P02550). The description is as above.
Experiment [7] addresses DRP-bound αβ-tubulin (1:1 complex of porcine αβ-tubulin and DARPin D1) (porcine) (UniProt P02550). Nature of the experiment: SEC; quantitative SEC (Superdex 200 10/300) with SDS-PAGE densitometry of fractions; 1 αβ-tubulin per Alp14 subunit, with or without DRP; 200 mM KCl, 50 mM HEPES pH 7.0, 1 mM MgCl2, 1 mM β-mercaptoethanol.
The target of experiment [8] is αβ-tubulin heterodimer purified from porcine brains (porcine) (UniProt P02550). The description is as above.
In experiment [9] the target is DRP-bound αβ-tubulin (1:1 complex of porcine αβ-tubulin and DARPin D1) (porcine) (UniProt P02550). Nature of the experiment: SEC; quantitative SEC (Superdex 200 10/300) with SDS-PAGE densitometry of fractions; 2 αβ-tubulin per Alp14 subunit, with or without DRP; 200 mM KCl, 50 mM HEPES pH 7.0, 1 mM MgCl2, 1 mM β-mercaptoethanol.
Experiment [10] deals with αβ-tubulin heterodimer purified from porcine brains (porcine) (UniProt P02550). The description is as above.
The target in experiment [11] is DRP-bound αβ-tubulin (1:1 complex of porcine αβ-tubulin and DARPin D1) (porcine) (UniProt P02550). As to the kind of experiment: SEC; quantitative SEC (Superdex 200 10/300) with SDS-PAGE densitometry of fractions; 2 αβ-tubulin per Alp14 subunit, with or without DRP; 100 mM KCl, 50 mM HEPES pH 7.0, 1 mM MgCl2, 1 mM β-mercaptoethanol.
Experiment [12] has as its target αβ-tubulin heterodimer purified from porcine brains (porcine) (UniProt P02550). The description is as above.

B1: isolated TOG2 domain of Alp14 (residues 320-510) (domain or fragment)
chain: KDNDFFNLVAILTKSVSKDANIMVVINAAHCIQAMAKGLRSNFSKYASTSINALLERSKEKKANVIESLSSAMDAVLATSSLDDLAELIASFAGNKNPQIKSSCFSLFSRSFSNMTSLPSKFTVDTCAKACVPGVSDTFEPVRSAAAEALGVLMKLVGERAINQYLSPLDDIRKSKIRSFYETATVKAKAP
For the molecule B1, the dissociation constant (Kd) in experiment [1] was found to be 173 nM; in [2], 3250 nM.

B2: isolated TOG1 domain of Alp14 (residues 1-270) (domain or fragment)
chain: MSQDQEEDYSKLPLESRIVHKVWKVRLSAYEECSKSFSLSADGSDNCFELWNNQSELWKSVLTDSNVAAQEAGTAAFVAYCRFSDPSHLLKAREISVLSISEKCLTSPRAGTRENALEALMLLVEADSAAPVIESIIPSLSARSPKVIASNVAAIASLVEQFGAKVIPSKMIIPHISNLFGHADKNVRKEASRLTVNIYRWTGDPLKDLLFKDLRPVQTKELESLFAELPTEPPKQTRFLKSQQPTSEPNVETQVEEQPALENEESEPEP
As to B2, the dissociation constant Kd is 70 nM in [1] and 1500 nM in experiment [2].

B3: wt-Alp14-monomer (S. pombe Alp14 residues 1-510) (domain or fragment)
chain: MSQDQEEDYSKLPLESRIVHKVWKVRLSAYEECSKSFSLSADGSDNCFELWNNQSELWKSVLTDSNVAAQEAGTAAFVAYCRFSDPSHLLKAREISVLSISEKCLTSPRAGTRENALEALMLLVEADSAAPVIESIIPSLSARSPKVIASNVAAIASLVEQFGAKVIPSKMIIPHISNLFGHADKNVRKEASRLTVNIYRWTGDPLKDLLFKDLRPVQTKELESLFAELPTEPPKQTRFLKSQQPTSEPNVETQVEEQPALENEESEPEPSDDQFDLVEEVDVLPNVDPNLETLMASSKWKDRKEALDKLLPVLSQPKIKDNDFFNLVAILTKSVSKDANIMVVINAAHCIQAMAKGLRSNFSKYASTSINALLERSKEKKANVIESLSSAMDAVLATSSLDDLAELIASFAGNKNPQIKSSCFSLFSRSFSNMTSLPSKFTVDTCAKACVPGVSDTFEPVRSAAAEALGVLMKLVGERAINQYLSPLDDIRKSKIRSFYETATVKAKAP
As for B3, the stoichiometry N in [3] and in experiment [4] was 2 throughout. The TOG1-TOG2:αβ-tubulin molar ratio came out at 0.98 in experiment [5]; 1.04 in [6]; 0.94 in experiment [7]; 0.76 in experiment [8]; 1.28 in [9]; 1.35 in experiment [10]. Besides, the figures for the TOG1-TOG2:αβ-tubulin molar ratio in experiment [11] and in experiment [12] were 1.64 and 2, respectively. Also, the µM tubulin bound in experiment [5] amounted to 4.33 µM; in experiment [6], 4.57 µM; in experiment [7], 4.13 µM; in experiment [8] it was 3.37 µM; in experiment [9] it was 5.67 µM; in experiment [10], 5.97 µM. Moreover, the µM tubulin bound in [11] was 7.23 µM; in experiment [12], 8.82 µM.

B4: wt-Alp14-dimer (S. pombe Alp14 residues 1-690) (domain or fragment)
chain: MSQDQEEDYSKLPLESRIVHKVWKVRLSAYEECSKSFSLSADGSDNCFELWNNQSELWKSVLTDSNVAAQEAGTAAFVAYCRFSDPSHLLKAREISVLSISEKCLTSPRAGTRENALEALMLLVEADSAAPVIESIIPSLSARSPKVIASNVAAIASLVEQFGAKVIPSKMIIPHISNLFGHADKNVRKEASRLTVNIYRWTGDPLKDLLFKDLRPVQTKELESLFAELPTEPPKQTRFLKSQQPTSEPNVETQVEEQPALENEESEPEPSDDQFDLVEEVDVLPNVDPNLETLMASSKWKDRKEALDKLLPVLSQPKIKDNDFFNLVAILTKSVSKDANIMVVINAAHCIQAMAKGLRSNFSKYASTSINALLERSKEKKANVIESLSSAMDAVLATSSLDDLAELIASFAGNKNPQIKSSCFSLFSRSFSNMTSLPSKFTVDTCAKACVPGVSDTFEPVRSAAAEALGVLMKLVGERAINQYLSPLDDIRKSKIRSFYETATVKAKAPTKKSKVKPSKQEESKVVVPSNAKAVKKSVVPSSPVVPSPRKATNKSLSMDVSKGNAFENGPLLPRPTTRPVSRGLSRGTSSSLQQKVKASTPLNSGALNETVQNLKNMELDDPAPQPAKHSRVDRYEHPKVLEDNDSTISSLESLKRENEELREQLKVEHEENISMQKQLSELKGELNTL
In the case of B4, the stoichiometry N in experiment [4] and in experiment [11] was 4 each time. Besides, the TOG1-TOG2:αβ-tubulin molar ratio in experiment [5] was found to be 0.96; in experiment [6], 0.98; in experiment [7], 0.95; in experiment [8], 0.78; in [9], 1.36; in experiment [10], 1.24. Further, the TOG1-TOG2:αβ-tubulin molar ratio in [11] came to 1.89; in experiment [12], 1.61. In addition, the µM tubulin bound was determined as 4.23 µM in [5]; 4.31 µM in [6]; 4.17 µM in experiment [7]; 3.44 µM in experiment [8]; 6.02 µM in [9]; 5.46 µM in experiment [10]. The figures for the µM tubulin bound in experiment [11] and in experiment [12] were 8.33 µM and 7.11 µM, respectively.
